Measurements taken from US20190322750A1.

Target: T1, ITGA6
T1 sequence (P23229 whole entry, species assumed, looked up): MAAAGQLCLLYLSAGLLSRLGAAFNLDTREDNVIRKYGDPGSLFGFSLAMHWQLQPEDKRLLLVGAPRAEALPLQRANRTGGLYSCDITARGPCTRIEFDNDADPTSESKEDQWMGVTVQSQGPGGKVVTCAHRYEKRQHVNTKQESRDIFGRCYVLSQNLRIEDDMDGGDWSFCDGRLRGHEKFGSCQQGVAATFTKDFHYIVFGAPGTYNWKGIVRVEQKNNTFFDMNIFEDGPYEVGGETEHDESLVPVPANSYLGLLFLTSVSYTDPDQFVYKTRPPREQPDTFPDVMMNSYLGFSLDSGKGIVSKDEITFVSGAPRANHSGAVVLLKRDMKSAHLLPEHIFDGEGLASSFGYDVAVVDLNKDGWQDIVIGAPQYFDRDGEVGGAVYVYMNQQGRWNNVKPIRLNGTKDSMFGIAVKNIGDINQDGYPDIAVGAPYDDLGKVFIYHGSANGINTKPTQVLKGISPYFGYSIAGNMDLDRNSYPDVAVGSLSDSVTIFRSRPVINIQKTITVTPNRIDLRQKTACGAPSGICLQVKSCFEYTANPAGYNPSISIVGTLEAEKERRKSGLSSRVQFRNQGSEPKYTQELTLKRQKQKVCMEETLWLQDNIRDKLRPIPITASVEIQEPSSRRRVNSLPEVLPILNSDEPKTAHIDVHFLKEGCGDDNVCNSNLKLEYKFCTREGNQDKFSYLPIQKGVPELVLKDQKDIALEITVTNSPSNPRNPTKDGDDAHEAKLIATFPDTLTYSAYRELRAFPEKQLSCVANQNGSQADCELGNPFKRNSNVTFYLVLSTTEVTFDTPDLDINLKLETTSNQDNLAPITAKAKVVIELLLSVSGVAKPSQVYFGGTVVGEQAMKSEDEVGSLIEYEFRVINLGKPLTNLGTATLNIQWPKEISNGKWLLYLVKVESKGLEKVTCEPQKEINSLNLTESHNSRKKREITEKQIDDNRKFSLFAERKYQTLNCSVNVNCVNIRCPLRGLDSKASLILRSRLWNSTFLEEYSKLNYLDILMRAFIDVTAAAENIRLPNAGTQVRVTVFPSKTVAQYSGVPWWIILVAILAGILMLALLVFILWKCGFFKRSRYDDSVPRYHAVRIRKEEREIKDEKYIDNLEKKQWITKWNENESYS
Experiment: ELISA on coated antigen, column ITGA6

Chain of Avelumab (antibody) (VH): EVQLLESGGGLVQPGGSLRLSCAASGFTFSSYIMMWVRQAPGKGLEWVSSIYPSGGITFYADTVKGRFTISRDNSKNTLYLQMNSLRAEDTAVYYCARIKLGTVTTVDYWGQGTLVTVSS
Chain of Avelumab (antibody) (VL): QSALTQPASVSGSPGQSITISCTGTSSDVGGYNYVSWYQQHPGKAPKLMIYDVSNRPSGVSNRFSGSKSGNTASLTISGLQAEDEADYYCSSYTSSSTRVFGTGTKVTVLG

absorbance at 490 nm: 0.6
Substance: Avelumab (antibody)
